Reference: PMC8217500, “Sequence signatures of two public antibody clonotypes that bind SARS-CoV-2 receptor binding domain” (Nature Communications, 2021)

Experiments:
Settings in all cases: both partners purified
[1] = target: T1, Fc-tagged SARS-CoV-2 receptor-binding domain (RBD), wild type (SARS-CoV-2, Wuhan-Hu-1 (QHD43416.1), UniProt P0DTC2); experiment: BLI; Fc-tagged RBD (20 ug/ml) loaded on anti-hIgG Fc Capture (AHC) biosensors, Fab in solution at four to five concentrations; Octet Red96e, room temperature, 1x kinetics buffer (1x PBS pH 7.4, 0.01% w/v BSA, 0.002% v/v Tween 20); 1:1 binding model
T1 construct: also called SARS-CoV-2 RBD; WT RBD; not shown: Fc, C-terminal, kept

[2] = target: T2, Fc-tagged SARS-CoV-2 spike receptor-binding domain (RBD) (SARS-CoV-2, Wuhan-Hu-1 (QHD43416.1), UniProt P0DTC2); experiment: BLI; Fc-tagged RBD (20 ug/ml) loaded on anti-hIgG Fc Capture (AHC) biosensors, Fab in solution; room temperature; 1x PBS pH 7.4, 0.01% BSA, 0.002% Tween 20; 1:1 binding model
T2 construct: also called SARS-CoV-2 RBD; Fc-tagged RBD; source: Expi293F, transiently transfected, purified (KanCapA protein A resin); not shown: Fc (after an SSSSG linker), C-terminal, kept

Fc-tagged SARS-CoV-2 RBD = target: T3, Fc-tagged SARS-CoV-2 RBD (SARS-CoV-2, Wuhan-Hu-1 (QHD43416.1), UniProt P0DTC2); experiment: BLI; Octet Red96e, room temperature; Fc-tagged RBD (20 μg/ml) loaded on anti-hIgG Fc Capture (AHC) biosensors, Fab in solution; 1× kinetics buffer (1× PBS pH 7.4, 0.01% BSA, 0.002% Tween 20); 60 s association, 60 s dissociation; 1:1 binding model
T3 construct: also called SARS-CoV-2 S RBD-Fc; not shown: Fc, C-terminal, kept

B1: COVA2-20 Fab, wild type (Fab, V domains shown)
VH: EVQLVESGGGLIQPGGSLRLSCAASGFTVSSNYMSWVRQAPGKGLEWVSVIYSGGSTYYADSVKGRFTISRDNSKNTLYLQMNSLRAEDTAVYYCASPLLLTPPDYYYYMDVWGKGTMVTVSS
VL: DVVMTQSPSSLSVSVGDRVTITCRASQGIRNDLGWYQQKPGKAPKRLIYAASSLQSGVPSRFSGSGSGTEFTLTISSLQPEDFATYYCLQHNSYLWTFGQGTKLEIK
Binder B1 has a Kd [1] of 304 ± 20 nM.

B2: COVA2-20 Fab, Y58 (wild type) (Fab, V domains shown)
VH: B1 VH
VL: B1 VL
In the case of B2, the Kd [2] is reported as 304 nM.

B3: COV107-23 Fab (Fab, V domains shown)
VH: EVQLVESGGGLIQPGGSLRLSCAASGFTVSSNYMSWVRQAPGKGLEWVSVIYSGGSTFYADSVKGRFTISRDNSKNTLYLQMNSLRAEDTAVYYCARDLGTGLFDYWGQGTLVTVSS
VL: DIQLTQSPSFLSASVGDRVTITCRASQGISSYLAWYQQKPGKAPKLLIYAASTLQSGVPSRFSGSGSGTEFTLTISSLQPEDFATYYCQQLDSYPPGTFGPGTKVDIK
notes: also called wild-type (WT) COV107-23; source: Expi293F, transiently co-transfected, purified (CaptureSelect CH1-XL column)
Work on B3 yielded a Kd (Fc-tagged SARS-CoV-2 RBD) of 1 nM.
